Legend:
[1] = target: Fc-tagged human FGFR1c ectodomain (human) (UniProt P11362); test: plate assay: 100 ng FGF23 coated, 400 ng purified sKL-N694Q or wildtype, then 200 ng Fc-FGFR1c (FIG. 25F)
[2] = target: Fc-tagged human FGFR4 ectodomain (human), P22455; test: SPR: Fc-FGFR4 on the chip, FGF23 with heparin in solution (FIG. 11E); conditions: remark: other sources report otherwise
[3] = target: Fc-tagged human FGFR4 ectodomain (human), P22455; test: SPR: Fc-FGFR4 on the chip, FGF23 with sKL or heparin in solution; conditions: remark: other sources report otherwise
[4] = target: Fc-tagged human FGFR4 ectodomain (human), P22455; test: SPR (BIAcore T200): Fc-FGFR4 amine-coupled to the chip, FGF23 injected at 1000-63 nM, 25 °C; conditions: remark: other sources report otherwise
[5] = target: Fc-tagged human FGFR4 ectodomain (human), P22455; test: SPR: Fc-FGFR4 on the chip, FGF23 with sKL (human ectodomain, self-made) in solution (FIG. 11F); conditions: remark: other sources report otherwise

Fc-tagged human FGFR4 ectodomain (human), P22455, sequence (P22455 22-369): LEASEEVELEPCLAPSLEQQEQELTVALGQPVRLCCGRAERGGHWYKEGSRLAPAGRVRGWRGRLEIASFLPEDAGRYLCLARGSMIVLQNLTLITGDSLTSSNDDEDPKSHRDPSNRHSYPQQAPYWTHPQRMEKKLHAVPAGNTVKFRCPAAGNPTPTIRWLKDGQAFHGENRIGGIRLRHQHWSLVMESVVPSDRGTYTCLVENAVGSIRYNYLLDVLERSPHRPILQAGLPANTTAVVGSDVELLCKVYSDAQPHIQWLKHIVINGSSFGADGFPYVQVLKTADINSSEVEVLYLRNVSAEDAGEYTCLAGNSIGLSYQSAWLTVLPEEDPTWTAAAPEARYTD
Fc-tagged human FGFR1c ectodomain (human), sequence (P11362 22-376 limits assumed): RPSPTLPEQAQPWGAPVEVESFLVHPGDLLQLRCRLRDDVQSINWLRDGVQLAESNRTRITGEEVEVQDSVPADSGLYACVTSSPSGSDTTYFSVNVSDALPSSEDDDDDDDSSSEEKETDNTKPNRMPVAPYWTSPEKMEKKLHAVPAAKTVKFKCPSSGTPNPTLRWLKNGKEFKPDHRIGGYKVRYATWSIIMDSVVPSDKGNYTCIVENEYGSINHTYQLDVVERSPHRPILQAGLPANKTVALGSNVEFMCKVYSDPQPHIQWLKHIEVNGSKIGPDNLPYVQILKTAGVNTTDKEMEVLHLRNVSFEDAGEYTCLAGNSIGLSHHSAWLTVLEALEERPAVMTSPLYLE

fold increase in formation of the trimeric FGF23/FGFR1c/sKL complex against wildtype sKL [1] | fold increase in binding affinity in the presence of heparin [2] | fold, effect of sKL on FGFR4 affinity for FGF23 against that of heparin [3] | Kd [4] | koff [4] | kon [4] | fold increase in binding affinity in the presence of sKL [5] | Binder
3 fold | – | – | – | – | – | – | complex of FGF23 and sKL-N694Q (protein, part only; not given: FGF23 and C-terminal FLAG/His tag, not shown: small tags and cut ends) EPGDGAQTWARFSRPPAPEAAGLFQGTFPDGFLWAVGSAAYQTEGGWQQHGKGASIWDTFTHHPLAPPGDSRNASLPLGAPSPLQPATGDVASDSYNNVFRDTEALRELGVTHYRFSISWARVLPNGSAGVPNREGLRYYRRLLERLRELGVQPVVTLYHWDLPQRLQDAYGGWANRALADHFRDYAELCFRHFGGQVKYWITIDNPYVVAWHGYATGRLAPGIRGSPRLGYLVAHNLLLAHAKVWHLYNTSFRPTQGGQVSIALSSHWINPRRMTDHSIKECQKSLDFVLGWFAKPVFIDGDYPESMKNNLSSILPDFTESEKKFIKGTADFFALCFGPTLSFQLLDPHMKFRQLESPNLRQLLSWIDLEFNHPQIFIVENGWFVSGTTKRDDAKYMYYLKKFIMETLKAIKLDGVDVIGYTAWSLMDGFEWHRGYSIRRGLFYVDFLSQDKMLLPKSSALFYQKLIEKNGFPPLPENQPLEGTFPCDFAWGVVDNYIQVDTTLSQFTDLNVYLWDVHHSKRLIKVDGVVTKKRKSYCVDFAAIQPQIALLQEMHVTHFRFSLDWALILPLGNQSQVNHTILQYYRCMASELVRVNITPVVALWQPMAPNQGLPRLLARQGAWENPYTALAFAEYARLCFQELGHHVKLWITMNEPYTRQMTYSAGHNLLKAHALAWHVYNEKFRHAQNGKISIALQADWIEPACPFSQKDKEVAERVLEFDIGWLAEPIFGSGDYPWVMRDWLNQRNNFLLPYFTEDEKKLIQGTFDFLALSHYTTILVDSEKEDPIKYNDYLEVQEMTDITWLNSPSQVAVVPWGLRKVLNWLKFKYGDLPMYIISNGIDDGLHAEDDQLRVYYMQNYINEALKAHILDGINLCGYFAYSFNDRTAPRFGLYRYAADQFEPKASMKHYRKIIDSNGFPGPETLERFCPEEFTVCTECSFFHTRKS
– | 3 fold | 4 to 5 fold | 320 nM | 0.04 s⁻¹ | 120000 M⁻¹ s⁻¹ | 13 fold | human FGF23, Q9GZV9 25-251 (ligand, UniProt Q9GZV9 25-251, looked up) YPNASPLLGSSWGGLIHLYTATARNSYHLQIHKNGHVDGAPHQTIYSALMIRSEDAGFVVITGVMSRRYLCMDFRGNIFGSHYFDPENCRFQHQTLENGYDVYHSPQYHFLVSLGRAKRAFLPGMNPPPYSQFLSRRNEIPLIHFNTPIPRRHTRSAEDDSERDPLNVLKPRARMTPAPASCSQELPSAEDNSPMASDPLGVVRGGRVNTHAGGTGPEGCRPFAKFI

— patent US20240384250A1, “FIBROBLAST GROWTH FACTOR 23 MODULATING COMPOUNDS” (THE UAB RESEARCH FOUNDATION, priority 2021, published 2024)
